Measured values from patent publication US12295987B2, “Method of using a GIP/GLP1 co-agonist for diabetes” (Eli Lilly and Company, priority 2018, dated 2025).

Target: T1, human gastric inhibitory peptide receptor (hGIPR) (Homo sapiens, UniProt P48546)
T1 construct: expressed in transfected cells; host or cells: HEK293
T1 sequence (P48546 22-466): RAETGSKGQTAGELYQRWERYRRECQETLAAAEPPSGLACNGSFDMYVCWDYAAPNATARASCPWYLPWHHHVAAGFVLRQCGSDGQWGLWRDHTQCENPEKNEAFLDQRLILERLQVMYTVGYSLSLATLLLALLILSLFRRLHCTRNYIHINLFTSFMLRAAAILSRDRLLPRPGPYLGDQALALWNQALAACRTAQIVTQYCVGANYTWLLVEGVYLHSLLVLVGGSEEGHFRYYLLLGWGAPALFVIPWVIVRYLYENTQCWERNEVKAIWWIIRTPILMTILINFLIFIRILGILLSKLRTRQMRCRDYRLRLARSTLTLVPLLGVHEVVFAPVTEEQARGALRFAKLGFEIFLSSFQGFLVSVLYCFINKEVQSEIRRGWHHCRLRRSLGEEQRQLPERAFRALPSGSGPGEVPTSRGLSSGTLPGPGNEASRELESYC
Assay: cAMP pharmacological functional assay in presence of 0.1% casein, hGIPR
Type: cell-based
Conditions: ratio of hGIPR to hGLP1R cAMP EC50 ratios

Row | Substance | [hGIPR/hGLP1R] EC50 Ratio
1 | Y-Aib-EGT-αMeF-TSDYSI-αMeL-LDKK((2-[2-(2-Amino-ethoxy)-ethoxy]-acetyl)2-(γGlu)-CO—(CH2)18—CO2H)AQ-Aib-EFI-(D-Glu)-YLIEGGPSSG-NH2 (YXEGTXTSDYSIXLDKKAQXEFIXYLIEGGPSSG; Aib, αMe, D-Glu, C20 diacid lipidation, C-amide; (2)..(2) Xaa at position 2 is Aib; (6)..(6) Xaa at position 6 is alpha-methyl-Phe; (13)..(13) Xaa at position 13 is alpha-methyl-Leu; MOD_RES (17)..(17) Lys at position 17 is chemically modified by conjugation of the epsilon-amino group of the Lys side chain with (2-[2-(2-amino-ethoxy)-ethoxy]-acetyl)2-(gamma-Glu)-CO-(CH2)18- CO2H; (20)..(20) Xaa at position 20 is Aib; (24)..(24) Xaa at position 2) [Peptide 228] | 3.51
2 | Y-Aib-EGT-αMeF-TSDYSI-αMeL-LDKK((2-[2-(2-Amino-ethoxy)-ethoxy]-acetyl)2-(γGlu)-CO—(CH2)18—CO2H)AQ-Aib-EFIEYLIEGGPSSG-NH2 (YXEGTXTSDYSIXLDKKAQXEFIEYLIEGGPSSG; Aib, αMe residues, C20 diacid lipidation, C-amide; (2)..(2) Xaa at position 2 is Aib; (6)..(6) Xaa at position 6 is alpha-methyl-Phe; (13)..(13) Xaa at position 13 is alpha-methyl-Leu; MOD_RES (17)..(17) Lys at position 17 is chemically modified by conjugation of the epsilon-amino group of the Lys side chain with (2-[2-(2-amino-ethoxy)-ethoxy]-acetyl)2-(gamma-Glu)-CO-(CH2)18- CO2H; (20)..(20) Xaa at position 20 is Aib; MOD_RES (34)..(34) Gly at po) [Peptide 123] | 2.56
3 | Y-Aib-EGT-αMeF-TSDYSI-αMeL-LDKK((2-[2-(2-Amino-ethoxy)-ethoxy]-acetyl)2-(γGlu)-CO—(CH2)18—CO2H)AQ-Aib-TFIEYLIEGGPSSGAPPPS-NH2 (YXEGTXTSDYSIXLDKKAQXTFIEYLIEGGPSSGAPPPS; Aib, αMeF, αMeL; acylated lysine C20 diacid; amide; (2)..(2) Xaa at position 2 is Aib; (6)..(6) Xaa at position 6 is alpha-methyl-Phe; (13)..(13) Xaa at position 13 is alpha-methyl-Leu; MOD_RES (17)..(17) Lys at position 17 is chemically modified by conjugation of the epsilon-amino group of the Lys side chain with (2-[2-(2-amino-ethoxy)-ethoxy]-acetyl)2-(gamma-Glu)-CO-(CH2)18- CO2H; (20)..(20) Xaa at position 20 is Aib; MOD_RES (39)..(39) Ser at po) [Peptide 139] | 3.19
4 | Y-Aib-EGT-αMeF-TSDYSI-αMeL-LDKK((2-[2-(2-Amino-ethoxy)-ethoxy]-acetyl)2-(γGlu)-CO—(CH2)18—CO2H)AQH-Aib-FIEYLIEGGPSSGAPPPS-NH2 (YXEGTXTSDYSIXLDKKAQHXFIEYLIEGGPSSGAPPPS; Aib, αMeF, αMeL; acylated lysine C20 diacid; amide; (2)..(2) Xaa at position 2 is Aib; (6)..(6) Xaa at position 6 is alpha-methyl-Phe; (13)..(13) Xaa at position 13 is alpha-methyl-Leu; MOD_RES (17)..(17) Lys at position 17 is chemically modified by conjugation of the epsilon-amino group of the Lys side chain with (2-[2-(2-amino-ethoxy)-ethoxy]-acetyl)2-(gamma-Glu)-CO-(CH2)18- CO2H; (21)..(21) Xaa at position 21 is Aib; MOD_RES (39)..(39) Ser at po) [Peptide 144] | 4.23
5 | Y-Aib-EGT-αMeF-TSDYSI-αMeL-LDSK((2-[2-(2-Amino-ethoxy)-ethoxy]-acetyl)2-(γGlu)-CO—(CH2)18—CO2H)AQ-Aib-AFIEYLIEGGPSSG-NH2 [Peptide 99] | 3.61
6 | Y-Aib-EGT-αMeF-TSDYSILLDKIAQ-Aib-AFIEYLIK((2-[2-(2-Amino-ethoxy)-ethoxy]-acetyl)2-(γGlu)-CO—(CH2)18—CO2H)GG-NH2 (YXEGTXTSDYSILLDKIAQXAFIEYLIKGG; Aib, αMeF; K lipidated C20 diacid-γGlu-AEEA2; C-terminal amide; (2)..(2) Xaa at position 2 is Aib; (6)..(6) Xaa at position 6 is alpha-methyl-Phe; (20)..(20) Xaa at position 20 is Aib; MOD_RES (28)..(28) Lys at position 28 is chemically modified by conjugation of the epsilon-amino group of the Lys side chain with (2-[2-(2-amino-ethoxy)-ethoxy]-acetyl)2-(gamma-Glu)-CO-(CH2)18- CO2H; MOD_RES (30)..(30) Gly at position 30 is amidated) [Peptide 95] | 2.52
7 | Y-Aib-EGT-αMeF-TSDYSILLDKK((2-[2-(2-Amino-ethoxy)-ethoxy]-acetyl)2-(γGlu)-CO—(CH2)18—CO2H)AQ-Aib-AFIEYLIEGGPSSG-NH2 [Peptide 98] | 6.33
8 | Y-Aib-EGTFTSDY-(D-Ser)-ILLDKK((2-[2-(2-Amino-ethoxy)-ethoxy]-acetyl)2-(γGlu)-CO—(CH2)18—CO2H)AQ-Aib-AFIEYLIEGGPSSGAPPPS-NH2 (YXEGTFTSDYXILLDKKAQXAFIEYLIEGGPSSGAPPPS; Aib, D-Ser, lipidated Lys, C-terminal amide; (2)..(2) Xaa at position 2 is Aib; (11)..(11) Xaa at position 11 is D-Ser; MOD_RES (17)..(17) Lys at position 17 is chemically modified by conjugation of the epsilon-amino group of the Lys side chain with (2-[2-(2-amino-ethoxy)-ethoxy]-acetyl)2-(gamma-Glu)-CO-(CH2)18- CO2H; (20)..(20) Xaa at position 20 is Aib; MOD_RES (39)..(39) Ser at position 39 is amidated) [Peptide 81] | 5.92
9 | Y-Aib-EGTFTSDY-aMeS-ILLDKK((2-[2-(2-Amino-ethoxy)-ethoxy]-acetyl)2-(γGlu)-CO—(CH2)18—CO2H)AQ-Aib-AFIEYLIEGGPSSGAPPPS-NH2 (YXEGTFTSDYXILLDKKAQXAFIEYLIEGGPSSGAPPPS; Aib, αMeS, lipidated Lys, C-terminal amide; (2)..(2) Xaa at position 2 is Aib; (11)..(11) Xaa at position 11 is alpha-methyl-Ser; MOD_RES (17)..(17) Lys at position 17 is chemically modified by conjugation of the epsilon-amino group of the Lys side chain with (2-[2-(2-amino-ethoxy)-ethoxy]-acetyl)2-(gamma-Glu)-CO-(CH2)18- CO2H; (20)..(20) Xaa at position 20 is Aib; MOD_RES (39)..(39) Ser at position 39 is amidated) [Peptide 68] | 4.72
10 | Y-Aib-EGTFTSDYSI-αMeL-LD-Aib-K((2-[2-(2-Amino-ethoxy)-ethoxy]-acetyl)2-(γGlu)-CO—(CH2)18—CO2H)AQ-Aib-AFIEYLIEGGPSSGAPPPS-NH2 (YXEGTFTSDYSIXLDXKAQXAFIEYLIEGGPSSGAPPPS; Aib, αMeL, lipidated Lys, C-terminal amide; (2)..(2) Xaa at position 2 is Aib; (13)..(13) Xaa at position 13 is alpha-methyl-Leu; (16)..(16) Xaa at position 16 is Aib; MOD_RES (17)..(17) Lys at position 17 is chemically modified by conjugation of the epsilon-amino group of the Lys side chain with (2-[2-(2-amino-ethoxy)-ethoxy]-acetyl)2-(gamma-Glu)-CO-(CH2)18- CO2H; (20)..(20) Xaa at position 20 is Aib; MOD_RES (39)..(39) Ser at position 39) [Peptide 60] | 4.47
11 | Y-Aib-EGTFTSDYSI-αMeL-LDEK((2-[2-(2-Amino-ethoxy)-ethoxy]-acetyl)2-(γGlu)-CO—(CH2)18—CO2H)AQ-Aib-AFIEYLIEGG-NH2 (YXEGTFTSDYSIXLDEKAQXAFIEYLIEGG; Aib, αMeL; K lipidated C20 diacid-γGlu-AEEA2; C-terminal amide; (2)..(2) Xaa at position 2 is Aib; (13)..(13) Xaa at position 13 is alpha-methyl-Leu; MOD_RES (17)..(17) Lys at position 17 is chemically modified by conjugation of the epsilon-amino group of the Lys side chain with (2-[2-(2-amino-ethoxy)-ethoxy]-acetyl)2-(gamma-Glu)-CO-(CH2)18- CO2H; (20)..(20) Xaa at position 20 is Aib; MOD_RES (30)..(30) Gly at position 30 is amidated) [Peptide 63] | 4.09
